In publication PMC10149743, “Structural studies of the nucleus-like assembly of jumbo bacteriophage 201φ2-1” (Frontiers in Microbiology, 2023):

Experiments:
[1] = biological target: the molecule itself; experiment: cryo-EM structure; cube-like particles from the 11.4 ml SEC peak; reconstruction with O symmetry (4.76 Å) and without symmetry (6.41 Å)
[2] = biological target: the molecule itself; experiment: SEC; truncation mutants of gp105, purified as the wild type, Superose 6 Increase 10/300 GL in buffer B (20 mM HEPES pH 7.5, 150 mM NaCl); self-association

B1: nucleus-like shell protein gp105 of bacteriophage 201φ2-1, wild type, C-terminal His6 (natural protein, Pseudomonas phage 201phi2-1, UniProt B3FIW8 1-631, looked up)
chain: MIRDTATNTTQTQAAPQQAPAQQFTQAPQEKPMQSTQSQPTPSYAGTGGINSQFTRSGNVQGGDARASEALTVFTRLKEQAVAQQDLADDFSILRFDRDQHQVGWSSLVIAKQISLNGQPVIAVRPLILPNNSIELPKRKTNIVNGMQTDVIESDIDVGTVFSAQYFNRLSTYVQNTLGKPGAKVVLAGPFPIPADLVLKDSELQLRNLLIKSVNACDDILALHSGERPFTIAGLKGQQGETLAAKVDIRTQPLHDTVGNPIRADIVVTTQRVRRNGQQENEFYETDVKLNQVAMFTNLERTPQAQAQTLFPNQQQVATPAPWVASVVITDVRNADGIQANTPEMYWFALSNAFRSTHGHAWARPFLPMTGVAKDMKDIGALGWMSALRNRIDTKAANFDDAQFGQLMLSQVQPNPVFQIDLNRMGETAQMDSLQLDAAGGPNAQKAAATIIRQINNLGGGGFERFFDHTTQPILERTGQVIDLGNWFDGDEKRDRRDLDNLAALNAAEGNENEFWGFYGAQLNPNLHPDLRNRQSRNYDRQYLGSTVTYTGKAERCTYNAKFIEALDRYLAEAGLQITMDNTSVLNSGQRFMGNSVIGNNMVSGQAQVHSAYAGTQGFNTQYQTGPSSFY
notes: gp105 (nucleus-like shell protein, chimallin) of Pseudomonas phage 201phi2-1, GenBank ABY62937; 631 amino acids; synthesised codon-optimised gene in pET28a; residues 1-48 and 583-631 are named as present but not built in the model; Occurs as monomer, 24-mer cube-like particle and large sheet-like assemblies; also called NLSP; source: E. coli BL21 (DE3) pLysS, purified (cobalt resin, Superose 6 …)
**Q.** For B1, which “stoichiometry N” value [1] is on record?
**A.** 24

B2: gp105Δ(NTS 1–17) (domain or fragment, Pseudomonas phage 201phi2-1, UniProt B3FIW8 18-631, looked up)
chain: QAPAQQFTQAPQEKPMQSTQSQPTPSYAGTGGINSQFTRSGNVQGGDARASEALTVFTRLKEQAVAQQDLADDFSILRFDRDQHQVGWSSLVIAKQISLNGQPVIAVRPLILPNNSIELPKRKTNIVNGMQTDVIESDIDVGTVFSAQYFNRLSTYVQNTLGKPGAKVVLAGPFPIPADLVLKDSELQLRNLLIKSVNACDDILALHSGERPFTIAGLKGQQGETLAAKVDIRTQPLHDTVGNPIRADIVVTTQRVRRNGQQENEFYETDVKLNQVAMFTNLERTPQAQAQTLFPNQQQVATPAPWVASVVITDVRNADGIQANTPEMYWFALSNAFRSTHGHAWARPFLPMTGVAKDMKDIGALGWMSALRNRIDTKAANFDDAQFGQLMLSQVQPNPVFQIDLNRMGETAQMDSLQLDAAGGPNAQKAAATIIRQINNLGGGGFERFFDHTTQPILERTGQVIDLGNWFDGDEKRDRRDLDNLAALNAAEGNENEFWGFYGAQLNPNLHPDLRNRQSRNYDRQYLGSTVTYTGKAERCTYNAKFIEALDRYLAEAGLQITMDNTSVLNSGQRFMGNSVIGNNMVSGQAQVHSAYAGTQGFNTQYQTGPSSFY
notes: gp105 of Pseudomonas phage 201phi2-1, GenBank ABY62937, residues 1-17 removed; Truncation made by PCR and In-Fusion cloning into pET28a; source: E. coli BL21 (DE3) pLysS, purified using the same method as for the wild type gp105
**Q.** Does B2 bind [2]?
**A.** binds

B3: gp105Δ(NTS 1–17, CTS 609–631) (domain or fragment, Pseudomonas phage 201phi2-1, UniProt B3FIW8 18-608, looked up)
chain: QAPAQQFTQAPQEKPMQSTQSQPTPSYAGTGGINSQFTRSGNVQGGDARASEALTVFTRLKEQAVAQQDLADDFSILRFDRDQHQVGWSSLVIAKQISLNGQPVIAVRPLILPNNSIELPKRKTNIVNGMQTDVIESDIDVGTVFSAQYFNRLSTYVQNTLGKPGAKVVLAGPFPIPADLVLKDSELQLRNLLIKSVNACDDILALHSGERPFTIAGLKGQQGETLAAKVDIRTQPLHDTVGNPIRADIVVTTQRVRRNGQQENEFYETDVKLNQVAMFTNLERTPQAQAQTLFPNQQQVATPAPWVASVVITDVRNADGIQANTPEMYWFALSNAFRSTHGHAWARPFLPMTGVAKDMKDIGALGWMSALRNRIDTKAANFDDAQFGQLMLSQVQPNPVFQIDLNRMGETAQMDSLQLDAAGGPNAQKAAATIIRQINNLGGGGFERFFDHTTQPILERTGQVIDLGNWFDGDEKRDRRDLDNLAALNAAEGNENEFWGFYGAQLNPNLHPDLRNRQSRNYDRQYLGSTVTYTGKAERCTYNAKFIEALDRYLAEAGLQITMDNTSVLNSGQRFMGNSVIGNNMVSGQAQ
notes: gp105 of Pseudomonas phage 201phi2-1, GenBank ABY62937, residues 1-17 and 609-631 removed; Truncation made by PCR and In-Fusion cloning into pET28a; source: E. coli BL21 (DE3) pLysS, purified using the same method as for the wild type gp105
**Q.** Does B3 bind [2]?
**A.** binds

B4: gp105Δ(NTS 1–60) (domain or fragment, Pseudomonas phage 201phi2-1, UniProt B3FIW8 61-631, looked up)
chain: QGGDARASEALTVFTRLKEQAVAQQDLADDFSILRFDRDQHQVGWSSLVIAKQISLNGQPVIAVRPLILPNNSIELPKRKTNIVNGMQTDVIESDIDVGTVFSAQYFNRLSTYVQNTLGKPGAKVVLAGPFPIPADLVLKDSELQLRNLLIKSVNACDDILALHSGERPFTIAGLKGQQGETLAAKVDIRTQPLHDTVGNPIRADIVVTTQRVRRNGQQENEFYETDVKLNQVAMFTNLERTPQAQAQTLFPNQQQVATPAPWVASVVITDVRNADGIQANTPEMYWFALSNAFRSTHGHAWARPFLPMTGVAKDMKDIGALGWMSALRNRIDTKAANFDDAQFGQLMLSQVQPNPVFQIDLNRMGETAQMDSLQLDAAGGPNAQKAAATIIRQINNLGGGGFERFFDHTTQPILERTGQVIDLGNWFDGDEKRDRRDLDNLAALNAAEGNENEFWGFYGAQLNPNLHPDLRNRQSRNYDRQYLGSTVTYTGKAERCTYNAKFIEALDRYLAEAGLQITMDNTSVLNSGQRFMGNSVIGNNMVSGQAQVHSAYAGTQGFNTQYQTGPSSFY
notes: gp105 of Pseudomonas phage 201phi2-1, GenBank ABY62937, residues 1-60 removed; Truncation made by PCR and In-Fusion cloning into pET28a; source: E. coli BL21 (DE3) pLysS, purified using the same method as for the wild type gp105
**Q.** Does B4 bind [2]?
**A.** binds

B5: gp105Δ(loop 279–285) (natural protein, Pseudomonas phage 201phi2-1, UniProt B3FIW8 1-631, looked up)
chain: MIRDTATNTTQTQAAPQQAPAQQFTQAPQEKPMQSTQSQPTPSYAGTGGINSQFTRSGNVQGGDARASEALTVFTRLKEQAVAQQDLADDFSILRFDRDQHQVGWSSLVIAKQISLNGQPVIAVRPLILPNNSIELPKRKTNIVNGMQTDVIESDIDVGTVFSAQYFNRLSTYVQNTLGKPGAKVVLAGPFPIPADLVLKDSELQLRNLLIKSVNACDDILALHSGERPFTIAGLKGQQGETLAAKVDIRTQPLHDTVGNPIRADIVVTTQRVRRNGQTDVKLNQVAMFTNLERTPQAQAQTLFPNQQQVATPAPWVASVVITDVRNADGIQANTPEMYWFALSNAFRSTHGHAWARPFLPMTGVAKDMKDIGALGWMSALRNRIDTKAANFDDAQFGQLMLSQVQPNPVFQIDLNRMGETAQMDSLQLDAAGGPNAQKAAATIIRQINNLGGGGFERFFDHTTQPILERTGQVIDLGNWFDGDEKRDRRDLDNLAALNAAEGNENEFWGFYGAQLNPNLHPDLRNRQSRNYDRQYLGSTVTYTGKAERCTYNAKFIEALDRYLAEAGLQITMDNTSVLNSGQRFMGNSVIGNNMVSGQAQVHSAYAGTQGFNTQYQTGPSSFY
notes: gp105 of Pseudomonas phage 201phi2-1, GenBank ABY62937, loop residues 279-285 deleted; source: E. coli BL21 (DE3) pLysS, purified using the same method as for the wild type gp105
**Q.** Does B5 bind [2]?
**A.** binds
